Measured values as given in article PMC7073074 (2020).

Tests used:
rabbit muscle F-actin [1] = target: T1, rabbit muscle F-actin (Oryctolagus cuniculus (Rabbit), UniProt P68135); assay: F-actin co-sedimentation, Coomassie SDS-PAGE
rabbit muscle F-actin [2] = target: T1, rabbit muscle F-actin; assay: F-actin co-sedimentation, Coomassie SDS-PAGE (apparent Kd given only as 8.9 µg, CI 5-20 µg); low ionic strength: co-pellets at 50 mM NaCl but not at 100 or 150 mM NaCl; polymerised (F-)actin

Binder	binding result (rabbit muscle F-actin [1])	binding result (rabbit muscle F-actin [2])
FLAG-tagged coronin A lacking the coiled coil (protein) MSKVVRSSKYRHVFAAQPKKEECYQNLKVTKSAWDSNYVAANTRYFGVIWDAAGGGSFAVIPHEASGKTTSVPLFNGHKSAVLDIAFHPFNENLVGSVSEDCNICIWGIPEGGLTDSISTPLQTLSGHKRKVGTISFNPVADNVAVTSSGDFLVKTWDVEQGKNLTTVEGHSDMITSCEWNHNGSQIVTTCKDKKARVFDPRTNSIVNEVVCHQGVKNSRAIFAKDKVITVGFSKTSERELHIYDPRAFTTPLSAQVVDSASGLLMPFYDADNSILYLAGKGDGNIRYYELVDESPYIHFLSEFKSATPQRGLCFLPKRCLNTSECEIARGLKVTPFTVEPISFRVPRKSDIFQDDIYPDTYAGEPSLTAEQWVSGTNAEPKTVSLAGGFVKKASAVEFKPVVQVQEGPKN	no binding	–
FLAG-tagged coronin A (protein) MSKVVRSSKYRHVFAAQPKKEECYQNLKVTKSAWDSNYVAANTRYFGVIWDAAGGGSFAVIPHEASGKTTSVPLFNGHKSAVLDIAFHPFNENLVGSVSEDCNICIWGIPEGGLTDSISTPLQTLSGHKRKVGTISFNPVADNVAVTSSGDFLVKTWDVEQGKNLTTVEGHSDMITSCEWNHNGSQIVTTCKDKKARVFDPRTNSIVNEVVCHQGVKNSRAIFAKDKVITVGFSKTSERELHIYDPRAFTTPLSAQVVDSASGLLMPFYDADNSILYLAGKGDGNIRYYELVDESPYIHFLSEFKSATPQRGLCFLPKRCLNTSECEIARGLKVTPFTVEPISFRVPRKSDIFQDDIYPDTYAGEPSLTAEQWVSGTNAEPKTVSLAGGFVKKASAVEFKPVVQVQEGPKNEKELREEYEKLKIRVAYLESEIVKKDAKIKELTN	–	binds
